Changes are numbered by the printed parent chain.
T1: ER α (UniProt P03372 1-595, limits assumed)
T1 construct: also called estrogen receptor α; ERα-ERE
T1 sequence (looked up): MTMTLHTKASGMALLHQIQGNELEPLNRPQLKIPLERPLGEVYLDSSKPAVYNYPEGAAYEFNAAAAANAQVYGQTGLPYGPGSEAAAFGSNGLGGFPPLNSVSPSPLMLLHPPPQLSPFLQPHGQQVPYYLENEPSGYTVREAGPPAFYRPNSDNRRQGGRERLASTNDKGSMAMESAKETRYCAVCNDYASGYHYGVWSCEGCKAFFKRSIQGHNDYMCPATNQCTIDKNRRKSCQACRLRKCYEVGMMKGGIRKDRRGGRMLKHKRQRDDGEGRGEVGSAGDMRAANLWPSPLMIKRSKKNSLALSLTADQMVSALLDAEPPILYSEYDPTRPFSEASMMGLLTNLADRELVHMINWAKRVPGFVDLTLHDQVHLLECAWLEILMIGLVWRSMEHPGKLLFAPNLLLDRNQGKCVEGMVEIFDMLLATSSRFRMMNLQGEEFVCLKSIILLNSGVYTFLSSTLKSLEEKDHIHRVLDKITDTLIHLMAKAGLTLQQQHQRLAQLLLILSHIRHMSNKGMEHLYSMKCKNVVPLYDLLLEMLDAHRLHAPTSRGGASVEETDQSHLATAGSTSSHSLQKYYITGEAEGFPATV

T2: estrogen receptor (ER) α as a carboxy-terminal fusion to the Gal4-activation domain (yeast, UniProt P03372 1-595, limits assumed)
T2 sequence (looked up): T1 sequence (looked up)

B1: B5H10 (peptide)
chain: MKLLSSIEQACDICRLKKLKCSKEKPKCAKCLKNNWECRYSPKTKRSPLTRAHLTEVESRLERLEQLFLLIFPREDLDMILKMDSLQDIKALLTGLFVQDNVNKDAVTDRLASVETDMPLTLRQHRISATSSSEESSNKGQRQLTVSEFSPPSSLLALLLGGKSLEPLPIRYKNVKRQFTSNSRGSVDLQPS
B2: B6F3 (peptide)
chain: MKLLSSIEQACDICRLKKLKCSKEKPKCAKCLKNNWECRYSPKTKRSPLTRAHLTEVESRLERLEQLFLLIFPREDLDMILKMDSLQDIKALLTGLFVQDNVNKDAVTDRLASVETDMPLTLRQHRISATSSSEESSNKGQRQLTVSEFFRATHLLRLLRTDSALDLQPS
B3: B6C4 (peptide)
chain: MKLLSSIEQACDICRLKKLKCSKEKPKCAKCLKNNWECRYSPKTKRSPLTRAHLTEVESRLERLEQLFLLIFPREDLDMILKMDSLQDIKALLTGLFVQDNVNKDAVTDRLASVETDMPLTLRQHRISATSSSEESSNKGQRQLTVSEFDRSSILVSLLSMVETLDLQPS
B4: B2G1 (peptide)
chain: B2 chain with A152L, T153R, H154R, L156D, R160Q, T161D, D162S, S163F, A164L
B5: B4F6 (peptide)
chain: MKLLSSIEQACDICRLKKLKCSKEKPKCAKCLKNNWECRYSPKTKRSPLTRAHLTEVESRLERLEQLFLLIFPREDLDMILKMDSLQDIKALLTGLFVQDNVNKDAVTDRLASVETDMPLTLRQHRISATSSSEESSNKGQRQLTVSEFSGVPILHMLLMLPSSLDLQPS
B6: B5A2 (peptide)
chain: B3 chain with D150G, R151C, S153A, V156R, S157Y, S160R, M161S, V162P, E163R, T164D
B7: B6A1 (peptide)
chain: MKLLSSIEQACDICRLKKLKCSKEKPKCAKCLKNNWECRYSPKTKRSPLTRAHLTEVESRLERLEQLFLLIFPREDLDMILKMDSLQDIKALLTGLFVQDNVNKDAVTDRLASVETDMPLTLRQHRISATSSSEESSNKGQRQLTVSEFTGSRLLLKLLRFPDSSTCSQA
B8: B3E2 (peptide)
chain: MKLLSSIEQACDICRLKKLKCSKEKPKCAKCLKNNWECRYSPKTKRSPLTRAHLTEVESRLERLEQLFLLIFPREDLDMILKMDSLQDIKALLTGLFVQDNVNKDAVTDRLASVETDMPLTLRQHRISATSSSEESSNKGQRQLTVSEFGGSVLLRELLCCYDALEPTTTR
B9: B1A1 (peptide)
chain: MKLLSSIEQACDICRLKKLKCSKEKPKCAKCLKNNWECRYSPKTKRSPLTRAHLTEVESRLERLEQLFLLIFPREDLDMILKMDSLQDIKALLTGLFVQDNVNKDAVTDRLASVETDMPLTLRQHRISATSSSEESSNKGQRQLTVSEFCPVGLLVHLLMQ
B10: B1G8 (peptide)
chain: B9 chain with C150T, P151S, G153S, L154R, H157T, M160L

Columns and labels:
[1] = biological target: T1, ER α; test: phage isolated on ERα-ERE; Buffer
[2] = biological target: T2, estrogen receptor (ER) α as a …; test: cell-based or functional assay; further: test concentration or dose not given here

| Binder | binding result [1] | Fold Induction (ligand-induced β-galactosidase, two-hybrid) [2] |
| --- | --- | --- |
| SSRPSPSFWEKQLSR [4B] | binds |  |
| SSRPDAAFFGAKLSR [3B] | binds |  |
| B1 |  | 4.5 fold |
| SRWWDTSWWLEELSR [6B] | binds |  |
| B2 |  | 3 fold |
| B3 |  | 2.5 fold |
| B4 |  | 12 fold |
| B5 |  | 5 fold |
| B6 |  | 3 fold |
| B7 |  | 3.5 fold |
| B8 |  | 3.5 fold |
| SSRIADLFWRLEPSR [1B] | binds |  |
| B9 |  | 11 fold |
| B10 |  | 6 fold |
| SSRPTAEWFRENLSR [5B] | binds |  |

— patent US20040043420A1, “Method of identifying conformation-sensitive binding peptides and uses thereof” (priority 2003, published 2004)
